Measurements taken from US20030170203A1 (Human Genome Sciences, published 2003).

T1: full length TNF-gamma-beta expressed on the cell surface (human, UniProt O95150 1-251)
T1 construct: whole, on cells; also called TNF-gamma-beta expressing cells
T1 sequence (looked up): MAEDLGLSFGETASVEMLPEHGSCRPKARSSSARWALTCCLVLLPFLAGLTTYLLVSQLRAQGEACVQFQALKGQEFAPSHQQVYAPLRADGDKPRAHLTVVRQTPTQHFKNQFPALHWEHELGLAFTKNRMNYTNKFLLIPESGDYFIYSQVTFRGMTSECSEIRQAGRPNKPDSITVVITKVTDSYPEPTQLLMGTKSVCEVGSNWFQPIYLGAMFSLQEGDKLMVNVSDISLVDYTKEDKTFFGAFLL

T2: FLAG-tagged soluble form of TNF-gamma-beta (aa 72-251) (human, UniProt O95150 72-251)
T2 construct: also called FLAG-TL1β; FLAG-TNF-gamma-beta; not shown: FLAG tag of vector pFLAGCMV1
T2 sequence (looked up): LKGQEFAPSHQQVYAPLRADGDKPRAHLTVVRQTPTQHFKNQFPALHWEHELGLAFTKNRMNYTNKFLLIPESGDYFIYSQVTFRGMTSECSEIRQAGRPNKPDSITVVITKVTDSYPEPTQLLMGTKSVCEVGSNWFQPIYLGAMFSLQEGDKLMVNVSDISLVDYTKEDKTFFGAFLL

T3: recombinant, untagged TNF-gamma-beta protein (aa 72-251) from E. coli (human, UniProt O95150 72-251)
T3 construct: Purified from E. coli
T3 sequence (looked up): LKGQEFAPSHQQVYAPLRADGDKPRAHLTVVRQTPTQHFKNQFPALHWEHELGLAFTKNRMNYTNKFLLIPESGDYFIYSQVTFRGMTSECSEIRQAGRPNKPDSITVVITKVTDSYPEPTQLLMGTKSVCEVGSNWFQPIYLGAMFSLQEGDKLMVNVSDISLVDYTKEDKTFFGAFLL


Experiments:
[1] = target: T1, full length TNF-gamma-beta expressed on …; experiment: flow cytometry on HEK293F stable transfectants expressing full length TNF-gamma-beta
Procedure: TR6 has been previously described as a decoy receptor (Pitti et al., Nature 396:699-703 (1998); Yu et al., J. Biol Chem. 274:13733-6 (1999)) capable of competing with Fas and HveA for binding of FasL and LIGHT, respectively.
One million cells, in 0.1 ml of FACS buffer (PBS, 0.1% BSA, 0.1% NaN₃), were incubated with 0.1-1 microgram of protein or antibody at RT for 15 min. The cells were washed with 3 ml of FACS buffer, reacted with biotinylated primary antibody, and stained with PE-conjugated secondary antibody at RT for 15 min. Cells were then washed again, resuspended in 0.5 microgram/ml of propidium iodide, and live cells were gated and analyzed on a FACScan using the CellQuest software (BD Biosciences).

[2] = target: T2, FLAG-tagged soluble form of …; experiment: co-immunoprecipitation with protein A-Sepharose, anti-Flag M2 immunoblot
Source text: The beads were then precipitated and washed extensively with PBST buffer (PBS, 0.5% Triton X-100) before boiled in SDS-sample buffer. Proteins were resolved on 4-20% Tris-Glycine gels (NOVEX), transferred to nitrocellulose membranes, and blotted with anti-Flag M2 monoclonal antibody (1 microgram/ml, Sigma) and horseradish peroxidase (HRP)-conjugated goat anti-mouse IgG antibody (0.5 microgram/ml).

[3] = target: T3, recombinant, untagged TNF-gamma-beta …; experiment: BIAcore 3000 (SPR), receptor-Fc amine-coupled to CM5 chip, TNF-gamma-beta in flow
Procedure: TNFR-Fc were covalently immobilized to the BIAcore sensor chip (CM5 chip) via amine groups using N-ethyl-N′-(dimethylaminopropyl) carbodiimide/N-hydroxysuccinimide chemistry. […] The amount of bound protein was determined during washing of the flow cell with HBS buffer (10 mM HEPES, pH 7.4, 150 mM NaCl, 3.4 mM EDTA, 0.005% Surfactant P20). The flow cell surface was regenerated by displacing bound protein by washing with 20 microliters of 10 mM glycine-HCl, pH 2.3. For kinetic analysis, the on and off rates were determined using the kinetic evaluation program in BIAevaluation 3 software using a 1:1 binding model and the global analysis method.

binding result [1]	binding result [2]	binding result [3]	Binder
no binding	no binding	–	extracellular domain of human TACI (aa 1-159) fused at its C-terminus to the Fc domain of human IgG1 (Fc fusion, UniProt O14836 1-159, looked up, not shown: a dimerising Fc or GST, range 1-159; also called TACI-Fc) MSGLGRSRRGGRSRVDQEERFPQGLWTGVAMRSCPEEQYWDPLLGTCMSCKTICNHQSQRTCAAFCRSLSCRKEQGKFYDHLLRDCISCASICGQHPKQCAYFCENKLRSPVNLPPELRRQRSGEVENNSDNSGRYQGLEHRGSEASPALPGLKLSADQ
–	–	no binding (tested: 3-370 nM)	BCMA-Fc (Fc fusion, human, UniProt Q02223 1-54, looked up, Control receptor surface of the BIAcore analysis; not shown: Fc) MLQMAGQCSQNEYFDSLLHACIPCQLRCSSNTPPLTCQRYCNASVTNSVKGTNA
